Here are results for 4 molecules from paper PMC5727402, “Structure of the large terminase from a hyperthermophilic virus reveals a unique mechanism for oligomerization and ATP hydrolysis” (Nucleic Acids Research, 2017).

Several values for one entry are separate records, joined by “and”; a condition that tells them apart may be missing. Identical values can stand only once.

The target in series [1] is T1, full-length D6E large terminase (1–427) (synthetic construct, UniProt Z9WCS4P2M6).
T1 construct: full length residues 1-427; N-terminal His6-3C tag cleaved; codon-optimized synthetic gene, E. coli BL21-Gold(DE3); monomer by SEC, monomer to pentamer by AUC, active oligomer proposed pentameric
T1 sequence (Z9WCS4P2M6 4-430): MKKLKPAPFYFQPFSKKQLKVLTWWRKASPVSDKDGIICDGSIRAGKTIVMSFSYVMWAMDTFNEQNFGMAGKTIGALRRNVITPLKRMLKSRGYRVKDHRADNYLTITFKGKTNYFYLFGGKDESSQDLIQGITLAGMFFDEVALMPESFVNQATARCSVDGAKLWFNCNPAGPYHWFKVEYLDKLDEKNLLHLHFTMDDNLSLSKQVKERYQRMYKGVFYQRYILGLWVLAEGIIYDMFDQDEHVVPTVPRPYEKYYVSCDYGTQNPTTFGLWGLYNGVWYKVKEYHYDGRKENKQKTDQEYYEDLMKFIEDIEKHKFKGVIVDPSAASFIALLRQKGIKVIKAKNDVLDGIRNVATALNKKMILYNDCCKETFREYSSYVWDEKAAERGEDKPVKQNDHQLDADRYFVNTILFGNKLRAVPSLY
The series is described as follows: thermal shift assay (SYPRO Orange). The settings on record: 5 mM nucleotide, 5 mM MgCl2, 5 mM HEPES pH 7.5, 5 mM potassium glutamate, 5 μM protein. In kind it is binding.

Series [2] deals with D6E large terminase ATPase domain (1–234) (Geobacillus stearothermophilus bacteriophage D6E). The experiment in a line: SEC; ATPase domain alone (Supplementary Figure S1C); conditions not shown.
The subject of series [3] is Nc1ncnc2c1ncn2[C@@H]1O[C@H](COP(=O)(O)OP(=O)(O)OP(=O)(O)O)[C@@H](O)[C@H]1O. The series is described as follows: purified protein. The settings on record: 10 mM HEPES pH 7.5, 50 mM potassium glutamate, 10 mM MgCl2, room temperature, 4.5 μM protein.

As a reminder, the ΔTm is the shift of the melting midpoint relative to a reference. On to `Nc1ncnc2c1ncn2[C@@H]1O[C@H](COP(=O)(O)OP(=O)(O)O)[C@@H](O)[C@H]1O` [ADP], for which, in series [1], the thermal shift (ΔTm) turned out to be 2.3 °C. As usually defined, the stoichiometry N is the number of molecules, sites or subunits per partner or assembly. Regarding “D6E large terminase ATPase domain (1–234) (domain or fragment)”, the stoichiometry N in series [2] is 4 and 5.

The Km is the substrate concentration at which the rate is half of its maximum. In general, kcat refers to the maximal rate divided by the concentration of active sites. Take “C-terminally truncated protein (1–417) (synthetic construct)”: in series [3], the Km worked out at 196.72 ± 8.0 µM and the kcat was determined as 0.0583 ± 0.00067 s⁻¹.

As to `Nc1ncnc2c1ncn2[C@@H]1O[C@H](COP(=O)(O)OP(=O)(O)OP(O)(O)=S)[C@@H](O)[C@H]1O` [ATP-γ-S], in series [1], the thermal shift (ΔTm) came out at 7.8 °C.
